Fold Increase over WT CD80-IgV-Fc (RLU, Jurkat/IL2 + K562/OKT3/PD-L1 reporter assay, 50 nM) and Relative Luciferase Units (RLU), Jurkat/IL2 + K562/OKT3/PD-L1 reporter assay, CD80-Fc Conc 50 nM data for 12 substances are collected here from patent publication US20210130436A1.

The target in assay [1] is CD28 on Jurkat/IL2 reporter cells (human) (UniProt P10747). Put plainly: cell-based or functional assay.
Assay [2] has as its target PD-L1 on K562/OKT3/PD-L1 artificial antigen presenting cells (UniProt Q9NZQ7). Put plainly: cell-based or functional assay.

Sequence of PD-L1 on K562/OKT3/PD-L1 artificial antigen presenting cells (Q9NZQ7 19-290): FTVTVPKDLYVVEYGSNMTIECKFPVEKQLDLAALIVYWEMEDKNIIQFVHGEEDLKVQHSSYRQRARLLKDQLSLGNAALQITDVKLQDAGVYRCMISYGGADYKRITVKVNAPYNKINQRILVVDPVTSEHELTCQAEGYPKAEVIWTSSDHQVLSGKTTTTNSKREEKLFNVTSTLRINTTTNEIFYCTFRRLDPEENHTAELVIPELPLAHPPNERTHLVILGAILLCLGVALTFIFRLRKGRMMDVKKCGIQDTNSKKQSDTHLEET

Regarding “CD80 A26E/E35D/M47L/A71G IgV-Fc (inert) (Fc fusion)”, the Fold Increase over WT CD80-IgV-Fc (RLU, Jurkat/IL2 + K562/OKT3/PD-L1 reporter assay, 50 nM) in assay [1] and in assay [2] was 8.5 fold each time. Moreover, the Relative Luciferase Units (RLU), Jurkat/IL2 + K562/OKT3/PD-L1 reporter assay, CD80-Fc Conc 50 nM in assay [1] and in assay [2] was 1750 RLU in each case.

Take “CD80 E35D/D46E/M47V/A71D IgV-Fc (inert) (Fc fusion)”: in assay [1], the Fold Increase over WT CD80-IgV-Fc (RLU, Jurkat/IL2 + K562/OKT3/PD-L1 reporter assay, 50 nM) worked out at 3.3 fold and the Relative Luciferase Units (RLU), Jurkat/IL2 + K562/OKT3/PD-L1 reporter assay, CD80-Fc Conc 50 nM came out at 683 RLU. Also, in assay [2], the Fold Increase over WT CD80-IgV-Fc (RLU, Jurkat/IL2 + K562/OKT3/PD-L1 reporter assay, 50 nM) turned out to be 3.3 fold and the Relative Luciferase Units (RLU), Jurkat/IL2 + K562/OKT3/PD-L1 reporter assay, CD80-Fc Conc 50 nM was 683 RLU.

Consider “CD80 E35D/D46E/M47V/A71D/D90G IgV-Fc (inert) (Fc fusion)”, for which, in assay [1], the Fold Increase over WT CD80-IgV-Fc (RLU, Jurkat/IL2 + K562/OKT3/PD-L1 reporter assay, 50 nM) was 5.1 fold and the Relative Luciferase Units (RLU), Jurkat/IL2 + K562/OKT3/PD-L1 reporter assay, CD80-Fc Conc 50 nM was determined as 1040 RLU. Further, in assay [2], the Fold Increase over WT CD80-IgV-Fc (RLU, Jurkat/IL2 + K562/OKT3/PD-L1 reporter assay, 50 nM) is 5.1 fold and the Relative Luciferase Units (RLU), Jurkat/IL2 + K562/OKT3/PD-L1 reporter assay, CD80-Fc Conc 50 nM stood at 1040 RLU.

In the case of “CD80 E35D/D46V/M47L/V68M/L85Q/E88D IgV-Fc (inert) (Fc fusion)”, in assay [1], the Fold Increase over WT CD80-IgV-Fc (RLU, Jurkat/IL2 + K562/OKT3/PD-L1 reporter assay, 50 nM) was determined as 7.1 fold and the Relative Luciferase Units (RLU), Jurkat/IL2 + K562/OKT3/PD-L1 reporter assay, CD80-Fc Conc 50 nM is 1460 RLU. In addition, in assay [2], the Fold Increase over WT CD80-IgV-Fc (RLU, Jurkat/IL2 + K562/OKT3/PD-L1 reporter assay, 50 nM) worked out at 7.1 fold and the Relative Luciferase Units (RLU), Jurkat/IL2 + K562/OKT3/PD-L1 reporter assay, CD80-Fc Conc 50 nM was 1460 RLU.

Consider “CD80 E35D/K37E/M47V/N48D/L85Q/D90N IgV-Fc (inert) (Fc fusion)”, for which, in assay [1], the Fold Increase over WT CD80-IgV-Fc (RLU, Jurkat/IL2 + K562/OKT3/PD-L1 reporter assay, 50 nM) worked out at 4.1 fold and the Relative Luciferase Units (RLU), Jurkat/IL2 + K562/OKT3/PD-L1 reporter assay, CD80-Fc Conc 50 nM came to 851 RLU. Further, in assay [2], the Fold Increase over WT CD80-IgV-Fc (RLU, Jurkat/IL2 + K562/OKT3/PD-L1 reporter assay, 50 nM) was determined as 4.1 fold and the Relative Luciferase Units (RLU), Jurkat/IL2 + K562/OKT3/PD-L1 reporter assay, CD80-Fc Conc 50 nM came out at 851 RLU.

Regarding “CD80 E35D/M38T/D46E/M47V/N48S IgV-Fc (inert) (Fc fusion)”, in assay [1], the Fold Increase over WT CD80-IgV-Fc (RLU, Jurkat/IL2 + K562/OKT3/PD-L1 reporter assay, 50 nM) came out at 6.4 fold and the Relative Luciferase Units (RLU), Jurkat/IL2 + K562/OKT3/PD-L1 reporter assay, CD80-Fc Conc 50 nM came out at 1320 RLU. Moreover, in assay [2], the Fold Increase over WT CD80-IgV-Fc (RLU, Jurkat/IL2 + K562/OKT3/PD-L1 reporter assay, 50 nM) was 6.4 fold and the Relative Luciferase Units (RLU), Jurkat/IL2 + K562/OKT3/PD-L1 reporter assay, CD80-Fc Conc 50 nM is 1320 RLU.

“CD80 E35D/M38T/M43V/M47V/N48R/L85Q IgV-Fc (inert) (Fc fusion)”: in assay [1], the Fold Increase over WT CD80-IgV-Fc (RLU, Jurkat/IL2 + K562/OKT3/PD-L1 reporter assay, 50 nM) is 3.3 fold and the Relative Luciferase Units (RLU), Jurkat/IL2 + K562/OKT3/PD-L1 reporter assay, CD80-Fc Conc 50 nM was determined as 680 RLU. For the same substance, in assay [2], the Fold Increase over WT CD80-IgV-Fc (RLU, Jurkat/IL2 + K562/OKT3/PD-L1 reporter assay, 50 nM) was found to be 3.3 fold and the Relative Luciferase Units (RLU), Jurkat/IL2 + K562/OKT3/PD-L1 reporter assay, CD80-Fc Conc 50 nM came to 680 RLU.

As for “CD80 E35D/M47L/A71G/L85M/F92Y IgV-Fc (inert) (Fc fusion)”, in assay [1], the Fold Increase over WT CD80-IgV-Fc (RLU, Jurkat/IL2 + K562/OKT3/PD-L1 reporter assay, 50 nM) was determined as 6.4 fold and the Relative Luciferase Units (RLU), Jurkat/IL2 + K562/OKT3/PD-L1 reporter assay, CD80-Fc Conc 50 nM turned out to be 1320 RLU. In addition, in assay [2], the Fold Increase over WT CD80-IgV-Fc (RLU, Jurkat/IL2 + K562/OKT3/PD-L1 reporter assay, 50 nM) amounted to 6.4 fold and the Relative Luciferase Units (RLU), Jurkat/IL2 + K562/OKT3/PD-L1 reporter assay, CD80-Fc Conc 50 nM worked out at 1320 RLU.

For the substance “CD80 E35D/M47V/A71G/E88D IgV-Fc (inert) (Fc fusion)”, in assay [1], the Fold Increase over WT CD80-IgV-Fc (RLU, Jurkat/IL2 + K562/OKT3/PD-L1 reporter assay, 50 nM) worked out at 5.9 fold and the Relative Luciferase Units (RLU), Jurkat/IL2 + K562/OKT3/PD-L1 reporter assay, CD80-Fc Conc 50 nM came to 1220 RLU. Further, in assay [2], the Fold Increase over WT CD80-IgV-Fc (RLU, Jurkat/IL2 + K562/OKT3/PD-L1 reporter assay, 50 nM) came to 5.9 fold and the Relative Luciferase Units (RLU), Jurkat/IL2 + K562/OKT3/PD-L1 reporter assay, CD80-Fc Conc 50 nM stood at 1220 RLU.

Regarding “CD80 E35D/M47V/N48T/L85Q IgV-Fc (inert) (Fc fusion)”, in assay [1], the Fold Increase over WT CD80-IgV-Fc (RLU, Jurkat/IL2 + K562/OKT3/PD-L1 reporter assay, 50 nM) came to 4.4 fold and the Relative Luciferase Units (RLU), Jurkat/IL2 + K562/OKT3/PD-L1 reporter assay, CD80-Fc Conc 50 nM came to 897 RLU. Also, in assay [2], the Fold Increase over WT CD80-IgV-Fc (RLU, Jurkat/IL2 + K562/OKT3/PD-L1 reporter assay, 50 nM) was found to be 4.4 fold and the Relative Luciferase Units (RLU), Jurkat/IL2 + K562/OKT3/PD-L1 reporter assay, CD80-Fc Conc 50 nM was determined as 897 RLU.

Consider “CD80 E35D/T41S/M43I/A71G/D90G IgV-Fc (inert) (Fc fusion)”, for which, in assay [1], the Fold Increase over WT CD80-IgV-Fc (RLU, Jurkat/IL2 + K562/OKT3/PD-L1 reporter assay, 50 nM) amounted to 5.4 fold and the Relative Luciferase Units (RLU), Jurkat/IL2 + K562/OKT3/PD-L1 reporter assay, CD80-Fc Conc 50 nM amounted to 1120 RLU. In assay [2], the Fold Increase over WT CD80-IgV-Fc (RLU, Jurkat/IL2 + K562/OKT3/PD-L1 reporter assay, 50 nM) turned out to be 5.4 fold and the Relative Luciferase Units (RLU), Jurkat/IL2 + K562/OKT3/PD-L1 reporter assay, CD80-Fc Conc 50 nM is 1120 RLU.

Consider “CD80 E35D/T41S/M43I/M47L/A71G IgV-Fc (inert) (Fc fusion)”, for which, in assay [1], the Fold Increase over WT CD80-IgV-Fc (RLU, Jurkat/IL2 + K562/OKT3/PD-L1 reporter assay, 50 nM) stood at 7.5 fold and the Relative Luciferase Units (RLU), Jurkat/IL2 + K562/OKT3/PD-L1 reporter assay, CD80-Fc Conc 50 nM turned out to be 1540 RLU. Also, in assay [2], the Fold Increase over WT CD80-IgV-Fc (RLU, Jurkat/IL2 + K562/OKT3/PD-L1 reporter assay, 50 nM) was found to be 7.5 fold and the Relative Luciferase Units (RLU), Jurkat/IL2 + K562/OKT3/PD-L1 reporter assay, CD80-Fc Conc 50 nM stood at 1540 RLU.
